Experimental findings from the nanobody polyreactivity screen of Harvey et al. (2022) are described below.

A short description of this data set: yeast display, Sf9 membrane polyspecificity reagent, FACS + sequencing; frameworks hold sequencing errors. The procedure, abridged: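 In a synthetic yeast display library (Saccharomyces cerevisiae BJ5465), nanobody expression was induced with galactose for 36–48 hours. FACS gates were set low and high (top ~1%) using anti-HA fluorescence for expression and streptavidin fluorescence for binding of the Sf9 membrane reagent. Each polyreactivity label is drawn from the gate of origin.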
In the case of “QVQLVESGGGLVQAGGSLRLSCAASGRTLKTYVMGWYRQAPGKERELVAAITSGGRTYYADSVKGRFTISRDNAKNTVYVQMNSLKPEDTAVYYCNAQLYWSRSWYLFDNTSFDYWGQGTQVTVSS”, the “polyreactivity (PSR sort gate)” value is “low polyreactivity”.

On to “QVQLVESGGGLVQAGGSLRLSCAASGRTLKYNAMGWYRQAPGKERELVAAISYSGSSTYYADSVKWRFTISRDNAKNTVYLQMNSLKPEDNAVYYCNSARPTAAYDYWGQGTQVTVSS”, for which the “polyreactivity (PSR sort gate)” value is listed as “low polyreactivity”.

As for “QVQLVESGGGLVQAGGSLRLSCAASGRTLKYNVMGWYRQAPGKERELVASITSRGGSTRYADSVKGRFTISRDNAKNTVYLLMNSLKPEDTAVYYCAARYTTARSSYDYWGQGTQVTVSS”, the “polyreactivity (PSR sort gate)” value is “high polyreactivity”.

On to “QVQLVESGGGLVQAGGSLRLSCAASGRTLPIYAMGWYRQAPGKERELVAAISWSGASTYADSVKGRFTISRDNAKYTVYLQMNSLKPEDTAVYYCAAYYESWYSSYGYGYWGQGTQVTVSS”, for which the “polyreactivity (PSR sort gate)” value is “low polyreactivity”.

With “QVQLVESGGGLVQAGGSLRLSCAASGRTLPPNAMGWYRQAPGKERELVAGITWSGGSTYYADSVKGRFTISRDNAKNTVYLQMNSLKPEDTAVYYCAASRSFPGYGLYYYWGQGTQVTVSS”, the “polyreactivity (PSR sort gate)” value is given as “low polyreactivity”.

With “QVQLVESGGGLVQAGGSLRLSCAASGRTLPYYMGWYRQAPGKERELVAAITNGDSTYYADSVKGRFTISRDNAKNTVYLQMNSLKPEDTAVYYCNVVTYVKYGYWGQGTQVTVSS”, the “polyreactivity (PSR sort gate)” value was “high polyreactivity”.

Take “QVQLVESGGGLVQAGGSLRLSCAASGRTLQGYAMGWYRQAPGKERELVAAISRGGGSTYADSVKGRFTISRDNAKNTVYLQMNSLKPEDTAVYYCNKKSYYRYYWGQGTQVTVSS”: the “polyreactivity (PSR sort gate)” value is “high polyreactivity”.

In the case of “QVQLVESGGGLVQAGGSLRLSCAASGRTLQTYVMGWYRQAPGKERELVAAITRGGGSTYYADSVKGRFTISRDNGKNTVFLQMNSLKPVDTSVYYCAASALRFNSRFSHWYIYWGQGTQVTVSS”, the “polyreactivity (PSR sort gate)” value is “high polyreactivity”.

As for “QVQLVESGGGLVQAGGSLRLSCAASGRTLRGNAMGWYRQAPGKERELVAVITRRGGSTYYADSVKGRFTISRDNAKNTFYLQMNSLKPEDTAVYYCAAVPYYYKYDYWGQGTQVTVSS”, the “polyreactivity (PSR sort gate)” value is “high polyreactivity”.

In the case of “QVQLVESGGGLVQAGGSLRLSCAASGRTLRIYAMGWYRQAPGKERELVAAITSSGRTNYADSVKGRFTISRDNAKNTVYLQMNSLKPEDTAVYYCAAVTPAVNYFRAASGYYYWGQGTQVTVSS”, the “polyreactivity (PSR sort gate)” value is reported as “low polyreactivity”.

Take “QVQLVESGGGLVQAGGSLRLSCAASGRTLRRYAMGWYRQAPGKERELVAGISRNGGSTYYADSVKGRFTISRDNAKNTVYLQMNSLKPEDTAVYYCNADDKAQSDYWGQGTQVTVSS”: the “polyreactivity (PSR sort gate)” value was “high polyreactivity”.

As to “QVQLVESGGGLVQAGGSLRLSCAASGRTLRWYAMGWYRQAPGKERELVAAITWRGGSTRYADSVKGRFTISRDNAKNTVYLQMNSLKPEDTAVYYCNKYYYRTIEGDYWGQGTQVTVSS”, the “polyreactivity (PSR sort gate)” value is reported as “high polyreactivity”.

With “QVQLVESGGGLVQAGGSLRLSCAASGRTLRWYTMGGYRQAPGEERELVAAISSSGGSTYYADSVKGRFTISRDNAKNTVYLQMNSLKPEDTAVYYCARDRRLREYDYWGQGTQVTVSS”, the “polyreactivity (PSR sort gate)” value was “low polyreactivity”.

As for “QVQLVESGGGLVQAGGSLRLSCAASGRTLRYYAMGRYIQAPGKERELVAIITSTGSTYYADSVKGRFTISRDNAKNTVYLQMNSLKPEDTAVYYCNRVISVSLDYLGENYWGQGTQVTVSS”, the “polyreactivity (PSR sort gate)” value is listed as “high polyreactivity”.

Take “QVQLVESGGGLVQAGGSLRLSCAASGRTLRYYAMGWYRQAPGKERELVAAITKSGGSTYYADSVKGRFTISRDNAKNTVYLQMNSLKPEDTAVYYCNKVTYSRAQYIGGDGYYWGLGTQVTVSS”: the “polyreactivity (PSR sort gate)” value is reported as “high polyreactivity”.

For “QVQLVESGGGLVQAGGSLRLSCAASGRTLSANAMGWYRQAPGKERELVATNSTRGGRTYYADSVKGRFTISRDNAKNTVYLQMNSLKPEDTAVYYCAVTIRAKYTLKEDYWGQGTQVTVSS”, the “polyreactivity (PSR sort gate)” value was “low polyreactivity”.

For “QVQLVESGGGLVQAGGSLRLSCAASGRTLSGNAMGWYRPAPGKERELVATITSDGGDTYYADSVKGRFTISRDNPKNTVYLQMNILKPEDTAVYYCNADYAGPKYVGYTFRSFTMDYWGQGTQVTVSS”, the “polyreactivity (PSR sort gate)” value was “low polyreactivity”.

Regarding “QVQLVESGGGLVQAGGSLRLSCAASGRTLSGYVMGWYRQAPGKERELVATISNGGSTYYADSVKGRFTISRDNAKNTVYLQMNSLKPEDTAVYYCNRYWYRKHSTDPPVRYRPVGYWGQGTQVTVSS”, the “polyreactivity (PSR sort gate)” value is given as “high polyreactivity”.

Turning to “QVQLVESGGGLVQAGGSLRLSCAASGRTLSLYAMGWYRQAPGKEMELVANISNSGGSTDYADSVKGRFTISRDNAKNTVYLQMNSLKPEDTAVYYCAADANSWFTSYQVYGSEFDYWGQGTQVTVSS”, the “polyreactivity (PSR sort gate)” value is “low polyreactivity”.

For the sequence “QVQLVESGGGLVQAGGSLRLSCAASGRTLSVYAMGWYRQAPGKERELLAAITIRGGRTYYADSVKGRFTISRDNAKNTVYLQMNSLKPEDTAVYYCAAPPYVKMDYWGQGTQVTVSS”, the “polyreactivity (PSR sort gate)” value is reported as “high polyreactivity”.

For “QVQLVESGGGLVQAGGSLRLSCAASGRTLSWYAMGWYRQAPGKEREFVAAITSSGASTYYADSVKGRFTISRDNAKNTVYLQMNSLKPEDTAVYYCAAKMRGYPRRRYDYCGQGTQVTVSS”, the “polyreactivity (PSR sort gate)” value is on record as “high polyreactivity”.

Turning to “QVQLVESGGGLVQAGGSLRLSCAASGRTLSYYAMGWYRQAPGKEREFVAAINWSGGSTYYADSVKGRFTISRDNAKNTVYLQMNSLKPEDTAVYYCAAYRPYSSSEGDYWGQGTQVTVSS”, the “polyreactivity (PSR sort gate)” value is recorded as “high polyreactivity”.

As to “QVQLVESGGGLVQAGGSLRLSCAASGRTLVINVMGWYRQAPGKERELVAAISFRSGNTYYADSVKGRFTISRDNAKNTVYLQMNSLKPEDTAVYYCAAYTYRTSTTSSYYYWGQGTQVTVSS”, the “polyreactivity (PSR sort gate)” value is on record as “high polyreactivity”.

Regarding “QVQLVESGGGLVQAGGSLRLSCAASGRTLYGYAMGWYRQAPGKERELVARITGRDGSTDYADSVKGRFTISRDNAKNTVYLQMNSLKPEDTAVYYCNARVRFHWYRSDYWGQGTQVTVSS”, the “polyreactivity (PSR sort gate)” value is listed as “high polyreactivity”.

Regarding “QVQLVESGGGLVQAGGSLRLSCAASGRTLYIYAMGWYREAPGKERELVAAITNGGTTYADSVKGRFTISRDNAKNTVYLQINSLKPEDTAVYYCNADLRVSRITQYEYWGQGTQVTVSS”, the “polyreactivity (PSR sort gate)” value is “low polyreactivity”.

Take “QVQLVESGGGLVQAGGSLRLSCAASGRTLYKYAMGWYRQAPGKERELVAAISRNGGSTYYADSVKGRFTISRDNAKNTVYLQMNSLKPEDTAVYYCNKRWGYQYLWVADYDYWGQGTQVTVSS”: the “polyreactivity (PSR sort gate)” value is on record as “high polyreactivity”.

Regarding “QVQLVESGGGLVQAGGSLRLSCAASGRTLYLNAMRWNRQPQRKERELVAISSGGSTYYADSVKGRFTISRDNAKNTVYLQMNSLKPEDTAVYYCNADEHYHFGYVFWYAYDYWGQGTQVTVSS”, the “polyreactivity (PSR sort gate)” value is on record as “low polyreactivity”.

In the case of “QVQLVESGGGLVQAGGSLRLSCAASGRTLYTNAMGWYRQAPGKERELVAAITSGASTNYADSVKGRFTISRDNAKNSVYLQMNSLKPEDTSVYYCASRTYHLWNARRYDYWGQGTQVTVSS”, the “polyreactivity (PSR sort gate)” value is reported as “low polyreactivity”.

With “QVQLVESGGGLVQAGGSLRLSCAASGRTLYTNAMGWYRQPPGKEREFVASISGSGGSTYYADSVKGRFTISRDNAKNTVDLQMNRLKQEDTAVYYCAADPAQTVEFGKYDYWGQGTQVTVSS”, the “polyreactivity (PSR sort gate)” value was “low polyreactivity”.

In the case of “QVQLVESGGGLVQAGGSLRLSCAASGRTMAVYAMGWDRQAPGKEREVVAAISWSGGTTYYADSVKGRFTISRDNAKNTVYLQMNSLKAEDTAVYYCAADSYTEVDYWGQGTQVTVSS”, the “polyreactivity (PSR sort gate)” value is on record as “low polyreactivity”.

In the case of “QVQLVESGGGLVQAGGSLRLSCAASGRTRGVNAMGWYSQAPGKERELVAAITRRGGSTSYADSVKGRFTISRDNEKNTVYLHMNSLKPEDTAVYYCAAGVIREKYYIWSDYEYDYWGQGTQVTVSS”, the “polyreactivity (PSR sort gate)” value is reported as “low polyreactivity”.

Take “QVQLVESGGGLVQAGGSLRLSCAASGRTSDGYARGWYRQAPGKERELVAGITEGGGDTYYADSVKGRFTISRDNAKNTVYLQMNSLKPEDTAVYYCNAVEGSRLPYDYWGQGTQVTVSS”: the “polyreactivity (PSR sort gate)” value is “low polyreactivity”.

In the case of “QVQLVESGGGLVQAGGSLRLSCAASGRTSGNYAKGWNRQAPGKERELVAAIRYSGSSTFYAESVKGRFTISRDSAKNSVYLQMNSLKPEDTGVYYCARDIRRKGFRYDYWGQGTQVTVSS”, the “polyreactivity (PSR sort gate)” value is recorded as “high polyreactivity”.

For “QVQLVESGGGLVQAGGSLRLSCAASGRTSLAYAMGWYRKATGKERELVAGITSGGNTNYADSVKGRFTISCDNAKNSVYLQMNRLKPEDTAVYYCNKKKRWQWYSESVLDELGFYSWGQGTQVTVSS”, the “polyreactivity (PSR sort gate)” value is on record as “low polyreactivity”.

As to “QVQLVESGGGLVQAGGSLRLSCAASGRTSLAYAMGWYRQAPGKERELVAAISRTGSTYYADSVKGRFTISRDNAKNTVYLQMNSLKPEDTAVYYCNAKRRPYSVRSDYWGQGTQVTVSS”, the “polyreactivity (PSR sort gate)” value is “high polyreactivity”.

In the case of “QVQLVESGGGLVQAGGSLRLSCAASGRTSLRNAMGWYRQAPGKEWELVATISQSGGRTHYADSVKGRFTISRENAKNTVYLQMNSLKPEDTAVYYCGAVARFSQYLYNYWGQGTQVTVSS”, the “polyreactivity (PSR sort gate)” value is listed as “low polyreactivity”.

As for “QVQLVESGGGLVQAGGSLRLSCAASGRTSLRYAMGWYRLAPGKDRELVAAIRYGGGSTRYADSVKGRFTISRDNAKNTVYLQMKSLKPEDTAVSYCAARYFPRIQYGRKGYDYWGQGTQVTVSA”, the “polyreactivity (PSR sort gate)” value is on record as “low polyreactivity”.

For “QVQLVESGGGLVQAGGSLRLSCAASGRTSNFNAMGWYRQATGKERELVAAINSDGSTYYADSVKGRFTISRDNAKNTVYLQMNSLKPEDTAVDYCAVRKRPHGYLAFGYWGQGTQVTVSS”, the “polyreactivity (PSR sort gate)” value is listed as “low polyreactivity”.

Take “QVQLVESGGGLVQAGGSLRLSCAASGRTSNGYAMGWYRQAPGKERELVAAYADSVKGRFTISRDNAKNTVYLQMNSLKPEDTAVYYCNADYYPVSRVGYVYWAYYYWGQGTQVTVSS”: the “polyreactivity (PSR sort gate)” value is on record as “low polyreactivity”.

In the case of “QVQLVESGGGLVQAGGSLRLSCAASGRTSPYYTMGWYRQAPGKERELVAASGSRTDYADSVKGRFTISRDNAKNTVYLQMNSLKPEDTAVYYCNAYRYRQSSSDKYGYWGQGTQVTVSS”, the “polyreactivity (PSR sort gate)” value is reported as “low polyreactivity”.
